The target in experiment [1] is polyclonal AG1-1 specific rabbit antiserum. The experiment in a line: competitive ELISA, BSA-BS^3-AG1-1 coated plates, free peptide as competitor. (In general: ELISA stands for enzyme-linked immunosorbent assay.)
The target of experiment [2] is AG1-1 specific monoclonal antibody F49. The experiment is described as follows: competitive ELISA, biotin-GRVRVD-β-SAY on streptavidin plates, free peptide as competitor.

Starred links: 1 amine or outer side, 2 acyl side, 3 side chain; linkers in the order of their positions; H or OH if unused. Non-standard residues stand in square brackets, D forms with d. No end group written: not given here. βAsp = O=C(O)[C@H](CC(=O)[*:2])N[*:1] Some results are limits rather than exact numbers.

B1: AG1-1 peptide … heated at 90° C. for 4 hours (peptide)
peptide: GRVRVNSAY
modifications: also: heated mixture: Asn6 partly converted to βL, αD and βD forms
Turning to B1, in experiment [1], the fold higher reactivity compared with the non-boiled form came to 7 fold.

B2: AG1-1 peptide, isomerized (βL) form (peptide)
peptide: GRVRV[βAsp]SAY
On to B2, for which the fold higher reactivity compared with the αL form in experiment [2] was over 500 fold.

For the origin of these results see patent US20050054014A1.
